The target of assay [1] is claudin 18.1 (CLDN18.1) (human) (UniProt P56856). In words: in-cell ELISA, hybridoma supernatant on HEK293-CLDN18.1 cells.
For assay [2] the target is unchanged. In words: FACS, hybridoma supernatant on HEK293-CLDN18.1. On the technique in general: A flow cytometer gives signals particle by particle.

Chain of claudin 18.1 (CLDN18.1) (human) (P56856 whole entry): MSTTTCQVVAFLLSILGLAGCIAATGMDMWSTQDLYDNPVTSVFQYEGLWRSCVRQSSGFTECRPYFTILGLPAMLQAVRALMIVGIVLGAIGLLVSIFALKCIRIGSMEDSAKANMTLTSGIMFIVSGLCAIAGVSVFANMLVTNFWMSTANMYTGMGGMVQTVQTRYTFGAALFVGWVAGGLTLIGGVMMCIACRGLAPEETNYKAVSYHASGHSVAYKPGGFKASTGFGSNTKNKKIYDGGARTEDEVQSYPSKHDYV

B1: hybridoma clone 10-L9-A (antibody, V domains shown)
VH: EVQLVESGGGLVKPGGSRKLSCAASGFTFSDYGMHWVRQAPEKGLEWIAYINSGSSTIYYADTVKGRFTISRDNAKNTLFLQMTSLRSEDTAMFYCARFARGNVLDYWGQGTSVTVSS
VL: DIVMTQSPSSLTVTAGEKVTMSCRSSQSLLNSGNQRNYLTWYQQKPGHPPKLLIYWASTRESGVPDRFTGSGSGTDFTLTISGVQAEDLAVYYCQNGYSYPLTFGAGTKLEVK
In assay [1], B1 came in with an OD450/µg IgG of 0.62 OD450/µg IgG. This molecule also yielded an MFI in assay [2] of 14300.

The values are drawn from patent US20210009686A1.
